Laboratory results published in patent EP4039268A1 (IMBA-Institut für Molekulare Biotechnologie GmbH, dated 2022).

B1: Vcan CRD-mouse IgG2a-Fc fusion protein (Fc fusion)
chain: not shown
B2: Lgals9_2 CRD-mouse IgG2a-Fc fusion protein (Fc fusion)
chain: FYTPIPNGLYPSKSIMISGNVLPDATRFHINLRCGGDIAFHLNPRFNENAVVRNTQINNSWGQEERSLLGRMPFSRGQSFSVWIICEGHCFKVAVNGQHMCEYYHRLKNLQDINTLEVAGDIQLTHVQTGGGSGGGSGGGS
B3: Clec7a CRD-mouse IgG2a-Fc fusion protein (Fc fusion)
chain: HGKSCYLFSFSGNSWYGSKRHCSQLGAHLLKIDNSKEFEFIESQTSSHRINAFWIGLSRNQSEGPWFWEDGSAFFPNSFQVRNTAPQESLLHNCVWIHGSEVYNQICNTSSYSICEGGGSGGGSGGGS
B4: Klrb1c CRD-mouse IgG2a-Fc fusion protein (Fc fusion)
chain: HRDKCFHVSQVSNTWEEGQADCGRKGATLLLIQDQEELRFLLDSIKEKYNSFWIGLRFTLPDMNWKWINGTTFNSDVLKITGVTENGSCASILGDKVTPESCASDNRWICQGGGSGGGSGGGS
B5: Clec2i CRD-mouse IgG2a-Fc fusion protein (Fc fusion)
chain: VGNKCFYFSGYPRNWTFAQAFCMAQEAQLARFDNEEELIFLKRFKGDFDCWIGLHRESSEHPWKWTNNTEYNNMNPILGVGRYAYLSSDRISSSRSYINRMWICSGGGSGGGSGGGS
B6: Klre1 CRD-mouse IgG2a-Fc fusion protein (Fc fusion)
chain: FRCSCYFFSKEELIWRDSQRACLSLNSSLIRMNKEEMNFFSLKSFFWVGVYYNETRRQWLWEDHSVLPSGLFSKLEANMKNFCASYKSKEAYMEENCANKLTYICKGGGSGGGSGGGS
B7: Ly75_1 CRD-mouse IgG2a-Fc fusion protein (Fc fusion)
chain: QIGSCYQFNNQEILSWKEAYVSCQNQGADLLSIHSAAELAYITGKEDIARLVWLGLNQLYSARGWEWSDFRPLKFLNWDPGTPVAPVIGGSSCARMDTESGLWQSVSCESQQPYVCKGGGSGGGSGGGS
B8: Lgals6_2 CRD-mouse IgG2a-Fc fusion protein (Fc fusion)
chain: YVGALQGGFTVRRTIIIKGYVLPTAKTFAINFRVGSSEDIALHINPRIGDCLVRNSYMNGSWGTEERMVAYNPFGPGQFFDLSIRCGMDRFKVFANGIHLFNFSHRFQALRKINTLEINGDLTLSYVHIGGGSGGGSGGGS
B9: Atrnl1 CRD-mouse IgG2a-Fc fusion protein (Fc fusion)
chain: VGDACLRINSSRESYDNAKLYCYNLSGNLASLTTSKEVEFVLDEIQKFTQQKVSPWVGLRKINISYWGWEDMSPFTNTSLQWLPGEPNDSGFCAYLERAAVAGLKANPCTSMADGLVCEGGGSGGGSGGGS
B10: Ly75_2 CRD-mouse IgG2a-Fc fusion protein (Fc fusion)
chain: NNGFCYLLANESSSWDAAHLKCKAFGADLISMHSLADVEVVVTKLHNGDVKKEIWTGLKNTNSPALFQWSDGTEVTLTYWNENEPSVPFNKTPNCVSYLGKLGQWKVQSCEKKLRYVCKGGGSGGGSGGGS
B11: Ncan CRD-mouse IgG2a-Fc fusion protein (Fc fusion)
chain: not shown
B12: Ly75_5 CRD-mouse IgG2a-Fc fusion protein (Fc fusion)
chain: IEGSEYWFVADPHLNYEEAVLYCASNHSFLATITSFTGLKAIKNKLANISGEEQKWWVKTSENPIDRYFLGSRRRLWHHFPMTFGDECLHMSAKTWLVDLSKRADCNAKLPFICEGGGSGGGSGGGS
B13: Klrg2 CRD-mouse IgG2a-Fc fusion protein (Fc fusion)
chain: SQEQCYYLSEEAQDWEGSQAFCSAHHATLPLLSHTQDFLRKYRITKGSWVGARRGPEGWHWTDGVPLPYQLFPADSEDHPDFSCGGLEEGRLVALDCSSPRPWVCAGGGSGGGSGGGS
B14: Clec5a CRD-mouse IgG2a-Fc fusion protein (Fc fusion)
chain: HQGKCFFFSFSESPWKDSMDYCATQGSTLAIVNTPEKLKYLQDIAGIENYFIGLVRQPGEKKWRWINNSVFNGNVTNQDQNFDCVTIGLTKTYDAASCEVSYRWICEGGGSGGGSGGGS
B15: Clec2g CRD-mouse IgG2a-Fc fusion protein (Fc fusion)
chain: VGNKCFYFSEYTSNWTFAQTFCMAQEAQLARFDNEKELNFLMRYKANFDSWIGLHRESSEHPWKWTDNTEYNNMIPIQGVETCAYLSGNGISSSRHYIPRIWICSGGGSGGGSGGGS
B16: Clec2h CRD-mouse IgG2a-Fc fusion protein (Fc fusion)
chain: FGSKCFYFSEDMGNWTFSQSSCVASNSHLALFHSLEELNFLKRYKGTSDHWIGLHRASTQHPWIWTDNTEYSNLVLTRGGGECGFLSDNGISSGRSYTHRKWICSGGGSGGGSGGGS
B17: Bcan CRD-mouse IgG2a-Fc fusion protein (Fc fusion)
chain: not shown
B18: Clec6a CRD-mouse IgG2a-Fc fusion protein (Fc fusion)
chain: FGSSCYLISTKENFWSTSEQNCVQMGAHLVVINTEAEQNFITQQLNESLSYFLGLSDPQGNGKWQWIDDTPFSQNVRFWHPHEPNLPEERCVSIVYWNPSKWGWNDVFCDSKHNSICEGGGSGGGSGGGS
B19: Klrg1 CRD-mouse IgG2a-Fc fusion protein (Fc fusion)
chain: NGSHCYYFSMEKKDWNSSLKFCADKGSHLLTFPDNQGVKLFGEYLGQDFYWIGLRNIDGWRWEGGPALSLRILTNSLIQRCGAIHRNGLQASSCEVALQWICKGGGSGGGSGGGS
B20: Colec12 CRD-mouse IgG2a-Fc fusion protein (Fc fusion)
chain: FTDKCYYFSLEKEIFEDAKLFCEDKSSHLVFINSREEQQWIKKHTVGRESHWIGLTDSEQESEWKWLDGSPVDYKNWKAGQPDNWGSGHGPGEDCAGLIYAGQWNDFQCDEINNFICEGGGSGGGSGGGS
B21: Siglec10 CRD-mouse IgG2a-Fc fusion protein (Fc fusion)
chain: VQRIVKAQEGLCIFVPCSFSSPEGKWLNRSPLYGYWFKGIRKPSLSFPVATNNKDKVLEWEARGRFQLLGDISKKNCSLLIKDVQWGDSTNYFFRMERGFERFSFKEEFRLQVGGGSGGGSGGGS

Molecular target: T1, full-length trimeric SARS-CoV-2 Spike protein (Spike-H6) (SARS-CoV-2, N-glycosylated (22 N-glycosylation sites))
T1 construct: also called trimeric Spike; full-length Spike-H6
Assay: ELISA screen

Binder	Mean normalized OD [OD]
B1	0.064
B2	0.056
B3	0
B4	0.001
B5	-0.61
B6	-0.002
B7	-0.434
B8	0.135
B9	0.001
B10	-0.319
B11	-0.09
B12	-0.17
B13	-0.044
B14	0
B15	-0.241
B16	-0.387
B17	-0.111
B18	0.003
B19	0.003
B20	0.04
B21	0.046

Molecular target: T2, monomeric SARS-CoV-2 receptor binding domain (RBD-H6) (SARS-CoV-2, UniProt P0DTC2 319-541)
T2 construct: Made in HEK293-6E cells; also called RBD Spike; monomeric RBD
Assay: ELISA screen

Binder	Mean normalized OD [OD]
B1	0.052
B2	0.033
B3	0.004
B4	0.004
B6	0.045
B9	0.001
B13	0.043
B14	-0.001
B18	0.029
B19	0.003
B20	0.027
B21	0.015

Molecular target: T3, human recombinant soluble ACE2 (human, UniProt Q9BYF1 18-740)
T3 construct: also called hrsACE2
T3 sequence (Q9BYF1 18-740 limits assumed): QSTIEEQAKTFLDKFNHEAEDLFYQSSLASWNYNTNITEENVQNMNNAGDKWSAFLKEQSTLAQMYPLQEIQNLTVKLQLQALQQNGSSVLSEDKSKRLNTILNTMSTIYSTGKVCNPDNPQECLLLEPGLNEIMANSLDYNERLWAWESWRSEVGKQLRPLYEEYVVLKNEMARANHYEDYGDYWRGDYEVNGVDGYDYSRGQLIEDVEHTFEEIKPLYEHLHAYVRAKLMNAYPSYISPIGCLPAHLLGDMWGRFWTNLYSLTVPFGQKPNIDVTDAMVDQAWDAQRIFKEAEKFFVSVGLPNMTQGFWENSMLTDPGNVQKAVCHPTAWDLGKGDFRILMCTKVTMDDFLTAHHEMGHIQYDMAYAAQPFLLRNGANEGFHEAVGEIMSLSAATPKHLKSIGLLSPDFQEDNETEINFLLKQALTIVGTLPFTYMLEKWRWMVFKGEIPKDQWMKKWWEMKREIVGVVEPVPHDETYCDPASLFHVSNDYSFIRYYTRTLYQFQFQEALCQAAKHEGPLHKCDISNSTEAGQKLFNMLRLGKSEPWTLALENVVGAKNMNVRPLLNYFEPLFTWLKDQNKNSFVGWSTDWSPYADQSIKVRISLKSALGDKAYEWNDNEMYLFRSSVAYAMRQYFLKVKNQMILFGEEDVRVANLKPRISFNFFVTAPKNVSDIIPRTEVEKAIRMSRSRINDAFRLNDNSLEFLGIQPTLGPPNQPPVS
Assay: ELISA screen

Binder	Mean normalized OD [OD]
B3	-0.001
B4	-0.004
B5	-0.249
B6	-0.006
B7	-0.571
B9	-0.003
B10	-0.135
B11	-0.589
B12	-0.106
B13	-0.013
B14	-0.005
B15	-0.722
B16	-0.707
B17	-0.538
B18	-0.032
B19	-0.843
